Measurements as given in publication PMC4655838, “Versatility in phospho-dependent molecular recognition of the XRCC1 and XRCC4 DNA-damage scaffolds by aprataxin-family FHA domains” (DNA Repair, 2015).
Square brackets hold non-standard residues; d marks the D form. Ends that are not written are not given here. pT = C[C@@H](OP(=O)(O)O)[C@H](N)C(=O)O; pS = N[C@@H](COP(=O)(O)O)C(=O)O

Columns and labels:
[1] = target: aprataxin FHA domain (residues 1-105); assay: NMR titration; unlabelled XRCC1 peptide added to 92 μM 15N-labelled aprataxin FHA domain up to 1:4; 22 °C; 20 mM Na acetate pH 5.8, 50 mM NaCl, 2 mM DTT; SOFAST-HMQC; apparent Kd, mean of the fits for D37, V45, Q46, V61 and V63
[2] = target: aprataxin FHA domain K38A (residues 1-105); assay: ITC; peptide injected (30 x 10 ul) into FHA domain in the cell; 22 °C; 50 mM HEPES pH 7.5, 150 mM NaCl, 5 mM β-mercaptoethanol; XRCC1 peptides 1 mM into 100 μM protein, XRCC4 peptides 300 μM into 30 μM protein; single-site binding model
[3] = target: aprataxin FHA domain (residues 1-105); assay: as above

Row | Binder | Kd [1] [µM] | fold decrease in binding relative to the wild-type [2] [fold] | fold increase in binding over the mono-phosphorylated peptide [3] [fold] | fold increase in binding over the di-phosphorylated peptide [3] [fold] | fold preference over the mono-phosphorylated (pT233) XRCC4 peptide [3] [fold] | fold tighter binding than the XRCC1 pThr519 peptide [3] [fold]
1 | YAGSTDENTDSEEHQ (HELM PEPTIDE1{Y.A.G.S.T.D.E.N.[C[C@@H](OP(=O)(O)O)[C@H](N[*:1])C(=O)[*:2]].D.S.E.E.H.Q.[am]}$$$$V2.0; N-terminus assumed; SMILES C[C@H](NC(=O)[C@@H](N)Cc1ccc(O)cc1)C(=O)NCC(=O)N[C@@H](CO)C(=O)N[C@H](C(=O)N[C@@H](CC(=O)O)C(=O)N[C@@H](CCC(=O)O)C(=O)N[C@@H](CC(N)=O)C(=O)N[C@H](C(=O)N[C@@H](CC(=O)O)C(=O)N[C@@H](CO)C(=O)N[C@@H](CCC(=O)O)C(=O)N[C@@H](CCC(=O)O)C(=O)N[C@@H](Cc1c[nH]cn1)C(=O)N[C@@H](CCC(N)=O)C(N)=O)[C@@H](C)OP(=O)(O)O)[C@@H](C)O) [XRCC1 515-529 peptide phosphorylated solely on Thr523] | 7 |  |  |  |  | 
2 | YDE[pS][pT]DEE[pS]-NH2 (N-terminus assumed; SMILES C[C@@H](OP(=O)(O)O)[C@H](NC(=O)[C@H](COP(=O)(O)O)NC(=O)[C@H](CCC(=O)O)NC(=O)[C@H](CC(=O)O)NC(=O)[C@@H](N)Cc1ccc(O)cc1)C(=O)N[C@@H](CC(=O)O)C(=O)N[C@@H](CCC(=O)O)C(=O)N[C@@H](CCC(=O)O)C(=O)N[C@@H](COP(=O)(O)O)C(N)=O) [XRCC4 229-237 peptide phosphorylated on Ser232, Thr233 and Ser237] |  | 9.3 |  |  |  | 
3 | YAGSTDENTDSEEHQ (HELM PEPTIDE1{Y.A.G.[O=C([C@H](COP(=O)(O)O)N[*:1])[*:2]].[C[C@@H](OP(=O)(O)O)[C@H](N[*:1])C(=O)[*:2]].D.E.N.T.D.S.E.E.H.Q.[am]}$$$$V2.0; N-terminus assumed; SMILES C[C@H](NC(=O)[C@@H](N)Cc1ccc(O)cc1)C(=O)NCC(=O)N[C@@H](COP(=O)(O)O)C(=O)N[C@H](C(=O)N[C@@H](CC(=O)O)C(=O)N[C@@H](CCC(=O)O)C(=O)N[C@@H](CC(N)=O)C(=O)N[C@H](C(=O)N[C@@H](CC(=O)O)C(=O)N[C@@H](CO)C(=O)N[C@@H](CCC(=O)O)C(=O)N[C@@H](CCC(=O)O)C(=O)N[C@@H](Cc1c[nH]cn1)C(=O)N[C@@H](CCC(N)=O)C(N)=O)[C@@H](C)O)[C@@H](C)OP(=O)(O)O) [XRCC1 515-529 peptide phosphorylated on Ser518 and Thr519] | 2 | 8.5 | 11 |  |  | 
4 | YAG[pS][pT]DEN[pT]DSEEHQ-NH2 (N-terminus assumed; SMILES C[C@H](NC(=O)[C@@H](N)Cc1ccc(O)cc1)C(=O)NCC(=O)N[C@@H](COP(=O)(O)O)C(=O)N[C@H](C(=O)N[C@@H](CC(=O)O)C(=O)N[C@@H](CCC(=O)O)C(=O)N[C@@H](CC(N)=O)C(=O)N[C@H](C(=O)N[C@@H](CC(=O)O)C(=O)N[C@@H](CO)C(=O)N[C@@H](CCC(=O)O)C(=O)N[C@@H](CCC(=O)O)C(=O)N[C@@H](Cc1c[nH]cn1)C(=O)N[C@@H](CCC(N)=O)C(N)=O)[C@@H](C)OP(=O)(O)O)[C@@H](C)OP(=O)(O)O) [XRCC1 515-529 peptide phosphorylated on Ser518, Thr519 and Thr523] | < 1 | 8.8 |  | 3 | 5 | 
5 | YDESTDEES (HELM PEPTIDE1{Y.D.E.S.[C[C@@H](OP(=O)(O)O)[C@H](N[*:1])C(=O)[*:2]].D.E.E.S.[am]}$$$$V2.0; N-terminus assumed; SMILES C[C@@H](OP(=O)(O)O)[C@H](NC(=O)[C@H](CO)NC(=O)[C@H](CCC(=O)O)NC(=O)[C@H](CC(=O)O)NC(=O)[C@@H](N)Cc1ccc(O)cc1)C(=O)N[C@@H](CC(=O)O)C(=O)N[C@@H](CCC(=O)O)C(=O)N[C@@H](CCC(=O)O)C(=O)N[C@@H](CO)C(N)=O) [XRCC4 229-237 peptide phosphorylated on Thr233] |  | 3.2 |  |  |  | 8
6 | YAGSTDENTDSEEHQ (HELM PEPTIDE1{Y.A.G.S.[C[C@@H](OP(=O)(O)O)[C@H](N[*:1])C(=O)[*:2]].D.E.N.T.D.S.E.E.H.Q.[am]}$$$$V2.0; N-terminus assumed; SMILES C[C@H](NC(=O)[C@@H](N)Cc1ccc(O)cc1)C(=O)NCC(=O)N[C@@H](CO)C(=O)N[C@H](C(=O)N[C@@H](CC(=O)O)C(=O)N[C@@H](CCC(=O)O)C(=O)N[C@@H](CC(N)=O)C(=O)N[C@H](C(=O)N[C@@H](CC(=O)O)C(=O)N[C@@H](CO)C(=O)N[C@@H](CCC(=O)O)C(=O)N[C@@H](CCC(=O)O)C(=O)N[C@@H](Cc1c[nH]cn1)C(=O)N[C@@H](CCC(N)=O)C(N)=O)[C@@H](C)O)[C@@H](C)OP(=O)(O)O) [XRCC1 515-529 peptide phosphorylated on Thr519] | 7 | 2.7 |  |  |  | 
7 | YDESTDEES (HELM PEPTIDE1{Y.D.E.[O=C([C@H](COP(=O)(O)O)N[*:1])[*:2]].[C[C@@H](OP(=O)(O)O)[C@H](N[*:1])C(=O)[*:2]].D.E.E.S.[am]}$$$$V2.0; N-terminus assumed; SMILES C[C@@H](OP(=O)(O)O)[C@H](NC(=O)[C@H](COP(=O)(O)O)NC(=O)[C@H](CCC(=O)O)NC(=O)[C@H](CC(=O)O)NC(=O)[C@@H](N)Cc1ccc(O)cc1)C(=O)N[C@@H](CC(=O)O)C(=O)N[C@@H](CCC(=O)O)C(=O)N[C@@H](CCC(=O)O)C(=O)N[C@@H](CO)C(N)=O) [XRCC4 229-237 peptide phosphorylated on Ser232 and Thr233] |  | 7.6 | 8 |  |  | 
